Blank lines part the entries; values can stand above or below the molecule they belong to.
Legend:
[1] = biological target: Multidrug resistance-associated protein 1 (Homo sapiens, UniProt P33527); assay: TP_TRANSPORTER: transepithelial transport (basal to apical) in MRP1-expressing MDCKII cells; format: functional, cell-based; details: dog, mdck-ii
[2] = system: COc1cc([C@@H]2c3cc4c(cc3[C@@H](O[C@@H]3O[C@@H]5CO[C@@H](C)O[C@H]5[C@H](O)[C@H]3O)[C@H]3COC(=O)[C@H]23)OCO4)cc(OC)c1O; assay: TP_TRANSPORTER: transepithelial transport (basal to apical) in MDR1-expressing MDCKII cells; format: functional, cell-based, MDCK-II
[3] = substrate: COc1cc([C@@H]2c3cc4c(cc3[C@@H](O[C@@H]3O[C@@H]5CO[C@@H](C)O[C@H]5[C@H](O)[C@H]3O)[C@H]3COC(=O)[C@H]23)OCO4)cc(OC)c1O; assay: TP_TRANSPORTER: transepithelial transport (basal to apical) in MRP2-expressing MDCKII cells; format: functional, cell-based, MDCK-II

Multidrug resistance-associated protein 1, sequence (P33527 whole entry): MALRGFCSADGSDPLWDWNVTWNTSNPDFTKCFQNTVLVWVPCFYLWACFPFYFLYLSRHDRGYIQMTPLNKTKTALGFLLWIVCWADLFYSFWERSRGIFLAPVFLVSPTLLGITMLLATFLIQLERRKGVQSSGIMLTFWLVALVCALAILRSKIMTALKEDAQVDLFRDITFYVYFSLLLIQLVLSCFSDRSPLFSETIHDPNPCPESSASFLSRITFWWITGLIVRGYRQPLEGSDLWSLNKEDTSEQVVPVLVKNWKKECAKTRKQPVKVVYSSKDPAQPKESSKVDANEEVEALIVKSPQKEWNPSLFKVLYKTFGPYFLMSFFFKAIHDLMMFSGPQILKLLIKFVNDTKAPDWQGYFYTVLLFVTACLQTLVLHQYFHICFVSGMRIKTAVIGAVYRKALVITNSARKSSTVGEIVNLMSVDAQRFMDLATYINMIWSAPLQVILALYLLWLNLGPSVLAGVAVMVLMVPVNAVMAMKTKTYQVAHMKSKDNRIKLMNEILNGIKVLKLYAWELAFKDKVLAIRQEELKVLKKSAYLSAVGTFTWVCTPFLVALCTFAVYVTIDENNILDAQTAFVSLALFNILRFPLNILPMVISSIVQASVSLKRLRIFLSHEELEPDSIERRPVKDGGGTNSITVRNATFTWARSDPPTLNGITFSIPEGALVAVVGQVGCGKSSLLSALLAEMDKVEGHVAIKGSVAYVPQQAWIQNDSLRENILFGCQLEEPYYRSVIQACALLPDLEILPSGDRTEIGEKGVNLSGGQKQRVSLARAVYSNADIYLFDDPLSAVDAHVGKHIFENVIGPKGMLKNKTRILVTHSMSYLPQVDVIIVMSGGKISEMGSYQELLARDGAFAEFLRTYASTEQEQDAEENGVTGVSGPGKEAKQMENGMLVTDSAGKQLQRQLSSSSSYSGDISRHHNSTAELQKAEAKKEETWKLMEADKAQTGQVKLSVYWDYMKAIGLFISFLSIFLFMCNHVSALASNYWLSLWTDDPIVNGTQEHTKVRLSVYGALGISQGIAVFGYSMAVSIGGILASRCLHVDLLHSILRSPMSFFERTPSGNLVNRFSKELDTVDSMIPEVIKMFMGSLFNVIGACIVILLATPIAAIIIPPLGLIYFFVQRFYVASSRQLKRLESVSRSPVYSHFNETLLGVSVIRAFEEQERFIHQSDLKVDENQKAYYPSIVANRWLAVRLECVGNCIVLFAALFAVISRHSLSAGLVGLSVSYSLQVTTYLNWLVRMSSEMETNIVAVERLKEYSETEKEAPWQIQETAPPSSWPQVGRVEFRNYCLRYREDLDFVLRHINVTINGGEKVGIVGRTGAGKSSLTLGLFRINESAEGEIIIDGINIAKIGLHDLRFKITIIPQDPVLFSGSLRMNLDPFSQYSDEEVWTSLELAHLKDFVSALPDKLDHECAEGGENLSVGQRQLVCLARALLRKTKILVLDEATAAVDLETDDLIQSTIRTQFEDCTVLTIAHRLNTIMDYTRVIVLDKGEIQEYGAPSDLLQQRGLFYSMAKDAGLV

Activity [1]: is not a substrate [-]
Molecule: COc1cc([C@@H]2c3cc4c(cc3[C@@H](O[C@@H]3O[C@@H]5CO[C@@H](C)O[C@H]5[C@H](O)[C@H]3O)[C@H]3COC(=O)[C@H]23)OCO4)cc(OC)c1O [ETOPOSIDE]

Molecule: ATP-dependent translocase ABCB1 (Homo sapiens)
Km [2]: 255 µM

B1: ATP-binding cassette sub-family C member 2 (Homo sapiens) (protein)
chain: MLEKFCNSTFWNSSFLDSPEADLPLCFEQTVLVWIPLGYLWLLAPWQLLHVYKSRTKRSSTTKLYLAKQVFVGFLLILAAIELALVLTEDSGQATVPAVRYTNPSLYLGTWLLVLLIQYSRQWCVQKNSWFLSLFWILSILCGTFQFQTLIRTLLQGDNSNLAYSCLFFISYGFQILILIFSAFSENNESSNNPSSIASFLSSITYSWYDSIILKGYKRPLTLEDVWEVDEEMKTKTLVSKFETHMKRELQKARRALQRRQEKSSQQNSGARLPGLNKNQSQSQDALVLEDVEKKKKKSGTKKDVPKSWLMKALFKTFYMVLLKSFLLKLVNDIFTFVSPQLLKLLISFASDRDTYLWIGYLCAILLFTAALIQSFCLQCYFQLCFKLGVKVRTAIMASVYKKALTLSNLARKEYTVGETVNLMSVDAQKLMDVTNFMHMLWSSVLQIVLSIFFLWRELGPSVLAGVGVMVLVIPINAILSTKSKTIQVKNMKNKDKRLKIMNEILSGIKILKYFAWEPSFRDQVQNLRKKELKNLLAFSQLQCVVIFVFQLTPVLVSVVTFSVYVLVDSNNILDAQKAFTSITLFNILRFPLSMLPMMISSMLQASVSTERLEKYLGGDDLDTSAIRHDCNFDKAMQFSEASFTWEHDSEATVRDVNLDIMAGQLVAVIGPVGSGKSSLISAMLGEMENVHGHITIKGTTAYVPQQSWIQNGTIKDNILFGTEFNEKRYQQVLEACALLPDLEMLPGGDLAEIGEKGINLSGGQKQRISLARATYQNLDIYLLDDPLSAVDAHVGKHIFNKVLGPNGLLKGKTRLLVTHSMHFLPQVDEIVVLGNGTIVEKGSYSALLAKKGEFAKNLKTFLRHTGPEEEATVHDGSEEEDDDYGLISSVEEIPEDAASITMRRENSFRRTLSRSSRSNGRHLKSLRNSLKTRNVNSLKEDEELVKGQKLIKKEFIETGKVKFSIYLEYLQAIGLFSIFFIILAFVMNSVAFIGSNLWLSAWTSDSKIFNSTDYPASQRDMRVGVYGALGLAQGIFVFIAHFWSAFGFVHASNILHKQLLNNILRAPMRFFDTTPTGRIVNRFAGDISTVDDTLPQSLRSWITCFLGIISTLVMICMATPVFTIIVIPLGIIYVSVQMFYVSTSRQLRRLDSVTRSPIYSHFSETVSGLPVIRAFEHQQRFLKHNEVRIDTNQKCVFSWITSNRWLAIRLELVGNLTVFFSALMMVIYRDTLSGDTVGFVLSNALNITQTLNWLVRMTSEIETNIVAVERITEYTKVENEAPWVTDKRPPPDWPSKGKIQFNNYQVRYRPELDLVLRGITCDIGSMEKIGVVGRTGAGKSSLTNCLFRILEAAGGQIIIDGVDIASIGLHDLREKLTIIPQDPILFSGSLRMNLDPFNNYSDEEIWKALELAHLKSFVASLQLGLSHEVTEAGGNLSIGQRQLLCLGRALLRKSKILVLDEATAAVDLETDNLIQTTIQNEFAHCTVITIAHRLHTIMDSDKVMVLDNGKIIECGSPEELLQIPGPFYFMAKEAGIENVNSTKF
Km [3]: 617 µM

— ChEMBL document CHEMBL2074524, “Delineating the contribution of secretory transporters in the efflux of etoposide using Madin-Darby canine kidney (MDCK) cells overexpressing P-glycoprotein (Pgp), multidrug resistance-associated protein (MRP1), and canalicular multispecific organic anion transporter (cMOAT)” (Drug Metab Dispos, 2002)
